{"source": "patent US20230133118A1", "about": "(ADAGENE, published 2023)", "key": {"human CD137": {"target": "T1, human CD137 (human, UniProt Q07011 24-186)", "T1 construct": "also called CD137 receptor; 4-1BB", "T1 sequence (Q07011 24-186 limits assumed)": "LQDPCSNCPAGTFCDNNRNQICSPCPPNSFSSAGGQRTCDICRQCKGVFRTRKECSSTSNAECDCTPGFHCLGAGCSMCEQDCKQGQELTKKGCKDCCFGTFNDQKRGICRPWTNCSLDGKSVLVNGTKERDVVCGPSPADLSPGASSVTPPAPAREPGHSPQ", "assay": "surface plasmon resonance (SPR); format not described"}, "rat CD137": {"target": "T2, rat CD137 (rat)", "T2 construct": "It was recombinantly expressed in reporter cells for the NFkB assay; also called rodent CD137 receptors (rat)", "assay": "not described; the reference is not named in the sentence (monkey and human CD137 in the sentences before)"}, "mouse CD137 [1]": {"target": "T3, mouse CD137 (mouse, UniProt P20334 24-187, limits assumed)", "T3 construct": "It was recombinantly expressed in reporter cells for the NFkB assay; also called rodent CD137 receptors (mouse)", "T3 sequence (looked up)": "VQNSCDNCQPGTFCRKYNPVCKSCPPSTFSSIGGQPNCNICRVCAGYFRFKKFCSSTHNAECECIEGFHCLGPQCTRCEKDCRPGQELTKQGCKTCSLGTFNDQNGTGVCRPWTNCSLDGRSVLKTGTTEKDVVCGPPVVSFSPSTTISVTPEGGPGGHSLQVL", "assay": "not described; the reference is not named in the sentence (monkey and human CD137 in the sentences before)"}, "mouse CD137 [2]": {"target": "T3, mouse CD137", "assay": "cell-based or functional assay"}, "cynomolgus monkey CD137": {"target": "cynomolgus monkey CD137 (cynomolgus monkey, UniProt A9YYE7 24-254)", "sequence (A9YYE7 entry or part of it)": "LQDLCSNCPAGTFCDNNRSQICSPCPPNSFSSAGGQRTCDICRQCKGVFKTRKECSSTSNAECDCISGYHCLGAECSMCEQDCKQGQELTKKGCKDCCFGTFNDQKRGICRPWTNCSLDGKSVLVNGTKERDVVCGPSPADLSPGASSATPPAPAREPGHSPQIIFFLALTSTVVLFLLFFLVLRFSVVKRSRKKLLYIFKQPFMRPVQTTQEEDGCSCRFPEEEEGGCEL", "assay": "cell-based or functional assay"}}, "data": [{"binder": "ADG106 (antibody, human IgG4 S228P, kappa, V domains shown, also called anti-CD137 antibody ADG106; fully human agonistic anti-CD137 monoclonal IgG4 antibody) VH: EVQLVESGGGLVQPGGSLRLSCAASGFSLSTGGVGVGWIRQAPGKGLEWLALIDWADDKYYSPSLKSRLTISRDNSKNTLYLQLNSLRAEDTAVYYCARGGSDTVIGDWFAYWGQGTLVTVSS VL: DIQLTQSPSSLSASVGDRVTITCRASQSIGSYLAWYQQKPGKAPKLLIYDASNLETGVPSRFSGSGSGTDFTLTISSLQPEDFATYYCQQGYYLWTFGQGTKVEIKR", "values": [{"measurement": "Kd", "setting": "human CD137", "result": 3.7, "unit": "nM"}, {"measurement": "fold lower affinity", "setting": "rat CD137", "result": "> 100", "unit": "fold"}, {"measurement": "fold lower affinity", "setting": "mouse CD137 [1]", "result": "> 100", "unit": "fold"}, {"measurement": "EC50 (read off the curve) (NFkB reporter, 293T cells expressing mouse CD137)", "setting": "mouse CD137 [2]", "result": "~0.4", "unit": "µg/mL"}, {"measurement": "EC50 (read off the curve) (NFkB reporter, 293T cells expressing monkey CD137)", "setting": "cynomolgus monkey CD137", "result": "~0.3", "unit": "µg/mL"}]}]}
